Results taken from patent US12702697B2, “Compositions and methods for treatment of headache disorders and neuropathic pain” (Washington University, priority 2019, dated 2026).

Columns and labels:
[1] = tested on: NTG-induced skin hypersensitivity in mice; experiment: Mouse model of chronic migraine (repetitive NTG): hindpaw and facial von Frey thresholds, cheek acetone test; format: in vivo
Procedure: Mouse model of chronic migraine and drug treatments: After measuring baseline nociceptive responses, mice received repetitive intraperitoneal (i.p.) injections of NTG (10 mg/kg in saline with 1% propylene glycol) or vehicle (saline with 1% propylene glycol in saline, 10 mL/kg) every 2 days for 4 or more times as described previously (Pradhan A A, et al. PAIN 2014; 155:269-74). Nocifensive behaviors were measured 2 days after each injection (before the next treatment). NTG (SDM27; Copperhead Chemical, Tamaqua, PA) was freshly diluted from the stock (10% in propylene glycol, aliquoted in airtight glass vials and stored at 4° C.) with saline for every injection. Recombinant mouse IL2 (carrier-free; Biolegend, San Diego, CA) was freshly diluted from the stock (1 mg/mL aliquots at […]) every day. Each mouse received daily i.p. injection of […] IL2 in […] saline. The control mice received daily i.p. injections of […] saline. In Treg depletion experiment, mice received 1 i.p. injection of antibodies against CD25 ([…], BP0012; BioXcell, West Lebanon, NH11) or control IgG (BP0088; BioXcell). The antibody binds to CD25 on Treg cell membrane and depletes Treg cells through Fcg receptor III-mediated antibody-dependent cellular cytotoxicity and antibody-dependent cellular phagocytosis (Setiady Y Y, et al, Eur J Immunol 2010; 40:780-6). Note that on the days that the mouse behaviors were tested, NTG, IL2 and/or antibodies were always injected after completing the behavioral tests.
Responses to mechanical stimuli on the hindpaw. Mice were habituated in individual clear plexiglass boxes (11×11×15 cm) for 1 to 2 hours. A series of calibrated von Frey filaments was used to apply mechanical stimuli to the plantar surface of the hindpaws. The up-down paradigm was used to determine the 50% withdrawal threshold. The thresholds for both hindpaws were averaged to yield a single value for each mouse.
Cheek acetone test. The acute nocifensive response to acetone-evoked evaporative cooling on mouse cheek was measured as previously described (Constandil L, et al. J Pain 2012; 13:579-89). The day before testing, both cheeks were shaved (6.5×12 mm) under brief anesthesia (2% isoflurane in 100% oxygen). On the test day, mice were habituated in individual plexiglass cylinders (11-cm diameter, 15-cm height) situated in front of 3-way mirrors for 1 to 2 hours. Acetone ([…]) was applied to the shaved cheeks and immediately returned mice to the cylinders. Time spent wiping the treated area was recorded by a video camera and quantified offline. For individual mice, acetone was applied alternatingly to both cheeks at 10-minute intervals, and the duration of behavior was averaged from 4 applications.
Withdrawal responses to facial mechanical stimuli. The hair on mouse forehead (above and between 2 eyes) was shaved the day before testing. On the test day, the experimenter gently held the mouse on the palm with minimal restraint and applied the calibrated von Frey filament perpendicularly to the shaved skin, causing the filament to bend for 5 seconds. A positive response was determined by the following criteria as previously described: mouse vigorously stroked its face with the forepaw, head withdrawal from the stimulus, or head shaking (Elliott M B et al., Headache 2012; 52:966-84). The up-down paradigm was used to determine the 50% withdrawal threshold. […]

[2] = tested on: IFNγ secretion by splenocytes; experiment: IFNγ ELISA and ELISPOT of CD3/CD28-stimulated splenocytes; format: cell-based, mouse
Procedure: To quantify interferon g (IFNγ) secretion, splenocytes were plated in 24-well plates (5 3 106 per well) and stimulated with antiCD3 and anti-CD28 antibodies ([…]) in 1 mL complete RPMI1640 media overnight. IFNγ in the supernatants were quantified by ELISA (430901; Biolegend).
ELISPOT assay was performed to determine the number of INFg-secreting cells. Splenocytes were plated at 5×10^4 cells per well and incubated overnight with RPMI1640 media containing anti-CD3 and anti-CD28 antibodies ([…]) for stimulation. IFNg was detected using a colorimetric reagent kit (R&D SEL485 and SEL002). Following development, images were captured and analyzed on the ImmunoSpot7.0 plate reader (Cellular Technologies, Kennesaw, GA).

[3] = ld-IL2 pretreatment, female C57BL/6J

B1: ld-IL2: Recombinant mouse IL2 (carrier-free; Biolegend), given as daily low-dose i.p. injection (protein, UniProt P04351 21-169, looked up)
Interleukin-2: APTSSSTSSSTAEAQQQQQQQQQQQQHLEQLLMDLQELLSRMENYRNLKLPRMLTFKFYLPKQATELKDLQCLEDELGPLRHVLDLTQSKSFQLEDAENFISNIRVTVVKLKGSDNTFECQFDDESATVVDFLRRWIAFCQSIISTSPQ
**Q.** Which “basal hindpaw mechanical sensitivity” value ([1]; 5 or 15 days of ld-IL2 injections, male C57BL/6J) does the source give for B1 here?
**A.** not altered

**Q.** And the “established persistent facial mechanical hypersensitivity resulting from repeated NTG injections” value ([1]; after 7 to 9 days of IL2 injections, female Swiss Webster)?
**A.** completely reverse

**Q.** What about the “behavioral sensitization by subsequent NTG administrations” value ([1]; continuous ld-IL2, female C57BL/6J, day 7-11) of the same molecule?
**A.** prevented

**Q.** And the “baseline facial mechanical threshold” value ([1]; daily ld-IL2, female Swiss Webster)?
**A.** not altered

**Q.** What about the “daily ld-IL2 treatments to completely reverse NTG-induced facial hypersensitivity, first session” value ([1]; day 4-10, male C57BL/6J) of the same molecule?
**A.** 7

**Q.** And the “slope of ld-IL2-induced reversal (change of threshold per day), first session” value ([1]; day 5-11, male C57BL/6J)?
**A.** 5.3±0.9

**Q.** What about the “acute reduction of facial mechanical threshold 3 hours after NTG” value ([1]; day 11, after 7 ld-IL2 injections, female C57BL/6J) of the same molecule?
**A.** did not cause an acute reduction

**Q.** And the “NTG injections needed after cessation of IL2 to lower the threshold to the NTG+saline level, first session” value ([1]; day 11-13, male C57BL/6J)?
**A.** 2 NTG injections

**Q.** And the “ld-IL2 injections required to completely reverse NTG-induced mechanical hypersensitivity, second session” value ([1]; day 19-22, male C57BL/6J)?
**A.** 4 injections

**Q.** What about the “slope of ld-IL2-induced reversal (change of threshold per day), second session” value ([1]; day 19-23, male C57BL/6J) of the same molecule?
**A.** 10.3±1.3

**Q.** What about the “NTG injections needed after cessation of the second ld-IL2 treatment to reduce the threshold to the NTG+saline level” value ([1]; day 23-27, male C57BL/6J) of the same molecule?
**A.** 3 NTG injections

**Q.** And the “development of facial cold hypersensitivity” value ([1]; delayed ld-IL2 started after 2 NTG injections, female Swiss Webster)?
**A.** blocked the development

**Q.** What about the “ld-IL2 injections sufficient to completely reverse the effect of repeated NTG” value ([1]; female C57BL/6J) of the same molecule?
**A.** 3 injections

**Q.** What about the “NTG-induced hindpaw mechanical hypersensitivity” value ([1]; ld-IL2 pretreatment starting 5 days before first NTG, male C57BL/6J) of the same molecule?
**A.** completely blocked

**Q.** What about the “NTG-induced facial cold hypersensitivity” value [1, 3] of the same molecule?
**A.** prevented the development

**Q.** And the “basal responses to acetone-induced cooling” value [1, 3]?
**A.** did not change

**Q.** And the “days of ld-IL2 treatment after which NTG-induced mechanical hypersensitivity started to reverse” value ([1]; ld-IL2 started after 2 NTG injections, female Swiss Webster)?
**A.** 5 days

**Q.** And the “effect of ld-IL2 on NTG-induced facial skin hypersensitivity in Treg-depleted mice” value ([1]; mice given anti-CD25 antibody 3 days earlier, male C57BL/6J)?
**A.** completely abolished

**Q.** And the “amount of CD3/CD28 stimulation-induced IFNγ secretion” value ([2]; ELISA, cells from IL-2-treated mice)?
**A.** significantly reduced

**Q.** And the “number of splenocytes secreting IFNγ” value ([2]; ELISPOT, 15 days of ld-IL2)?
**A.** not altered
